Results reported in article PMC3968163.

B1: unnamed (parent)
chain 1: SIDPADLDESWDYIFETTESPSSD
chain 2: MSHSGAAIFEKVSGIIAINEDVSPAELTWRSTDGDKVHTVVLSTIDKLQATPASSEKMMLRLIGKVDESKKRKDNEGNEVVPKPQRHMFSFNNRTVMDNIKMTLQQIISRYKDAD

Variants of: B1
Experiment: ITC
Conditions: with partner chain of the complex shown; 25°C in a 20 mM Tris pH 7.4

| Variant | Kd |
| --- | --- |
| chain 1 I14S | 4.2 µM |
